Data published in patent US20170218072A1.

What was measured:
[1] = biological target: HER2ex. (UniProt P04626); experiment: SPR (Biacore X100); single cycle method, 0.05% Tween20-PBS, immobilized full-Ab
[2] = biological target: HER2ex. (UniProt P04626); experiment: SPR (Biacore X100); multi-cycle method, 0.05% Tween20-PBS; conditions: scFv
[3] = biological target: HER2ex. (UniProt P04626); experiment: SPR (Biacore X100); multi-cycle method, 0.005% Tween20-PBS; conditions: scFv

Substance	Kd [1] [nM]	Kd [2] [nM]	Kd [3] [nM]
Trastuzumab full-body Ab	3.56	–	–
Trastuzumab scFv	–	0.0947	0.256
